Experimental data published in article PMC6213277.

Assays:
[1] = molecular target: McjD-C547 (cys-less McjD with the native cysteine C547 only), labelled with Alexa555 and Alexa647 (Escherichia coli) (UniProt Q9X2W0); assay: FRET or BRET; single-molecule FRET, confocal scanning, 10 ms time resolution; labelled McjD reconstituted in biotin-DOPE proteoliposomes (protein to lipid ~1:1,000 w/w) immobilised through neutravidin on PEG-biotin coverslips; oxygen-free buffer with Trolox; FRET between the single cysteines of the two protomers
[2] = molecular target: McjD L67C (single cysteine in cys-less McjD), labelled with Alexa555 and Alexa647 (Escherichia coli) (UniProt Q9X2W0)
[3] = molecular target: McjD Y64C (single cysteine in cys-less McjD), labelled with Alexa555 and Alexa647 (Escherichia coli) (UniProt Q9X2W0)

lifetime of the dimerized ATP-free NBD state [1] | mean apparent FRET efficiency E* between the dyes at L67C of the two protomers (opening of the TMD), proteoliposomes, with 10 mM ATP and 200 uM MccJ25 (apo 0.69) [2] | mean apparent FRET efficiency E* between the dyes at L67C of the two protomers (opening of the periplasmic gate of the TMD), detergent, with ATP + MccJ25 (apo 0.95; ATP alone 0.95) [2] | mean apparent FRET efficiency E* between the dyes at Y64C of the two protomers (opening of the TMD), proteoliposomes, with 10 mM ATP and 200 uM MccJ25, first population (apo 0.81 & 0.60) [3] | mean apparent FRET efficiency E* between the dyes at Y64C of the two protomers (opening of the TMD), proteoliposomes, with 10 mM ATP and 200 uM MccJ25, second population (apo 0.81 & 0.60) [3] | mean apparent FRET efficiency E* between the dyes at Y64C of the two protomers (opening of the periplasmic gate of the TMD), detergent, with ATP + MccJ25 (apo 1.07; ATP alone 1.01) [3] | Molecule
82 ms |  |  |  |  |  | McjD-C547 (cys-less McjD with the native cysteine C547 only), labelled with Alexa555 and Alexa647 (from UniProt Q9X2W0 1-580) (natural protein)
 | 0.51 | 0.83 | 0.82 | 0.52 | 0.91 | GGAGHVPEYFVGIGTPISFYG [antibacterial peptide MccJ25]
